For two substances, transcription of a reporter gene dependent on GAL4 binding sites (CAT), superactivation assay in Drosophila Schneider cells and fold greater binding to the Sp1-containing resin than to the resin without Sp1 results are on record in patent US5534410.

Assay [1] concerns the target GAL4-Sp1B domain fusion (Homo sapiens (Human)) (UniProt P08047).
Assay [2] has as its target Sp1, over-expressed and purified from HeLa cells infected with a vaccinia virus expression vector (Homo sapiens (Human)) (UniProt P08047). The assay can be described thus: 35S-TAF110 (reticulocyte lysate) on DNA-bound Sp1 resin, SDS-PAGE, PhosphorImager.

In assay [1], “Sp1(N539), the gln-rich A and B domains of Sp1 (from UniProt P08047)” gave a transcription of a reporter gene dependent on GAL4 binding sites (CAT), superactivation assay in Drosophila Schneider cells of 50 fold.
As to “Drosophila TAF110 (dTAFII110), full-length”, the fold greater binding to the Sp1-containing resin than to the resin without Sp1 in assay [2] came out at 60 fold.
